This passage reports Kd results from article PMC3714538.

The test addresses LC3B (protein of the ITC experiments) (UniProt Q9GZQ8). Put plainly: ITC.
On to “OPTN peptide LIR_P1 (pSer177) (from UniProt Q96CV9 169-184)”, for which the Kd worked out at 13 µM.

In turn, “OPTN peptide LIR_P0 (no phosphorylation) (from UniProt Q96CV9 169-184)” came in with a Kd of 67 µM.

As for “OPTN peptide LIR_Ptot (all serines phosphorylated) (from UniProt Q96CV9 169-184)”, the Kd came to 5 µM.

Usually Kd stands for the free concentration of one partner at which half of the binding sites on the other are occupied at equilibrium, for simple one-to-one binding. Lower therefore signals a tighter complex.
